Reference: IntAct's records for PubMed 23572552

B1: TBC1 domain family member 22A (Homo sapiens), Q8WUA7 (parent)
chain: MASDGARKQFWKRSNSKLPGSIQHVYGAQHPPFDPLLHGTLLRSTAKMPTTPVKAKRVSTFQEFESNTSDAWDAGEDDDELLAMAAESLNSEVVMETANRVLRNHSQRQGRPTLQEGPGLQQKPRPEAEPPSPPSGDLRLVKSVSESHTSCPAESASDAAPLQRSQSLPHSATVTLGGTSDPSTLSSSALSEREASRLDKFKQLLAGPNTDLEELRRLSWSGIPKPVRPMTWKLLSGYLPANVDRRPATLQRKQKEYFAFIEHYYDSRNDEVHQDTYRQIHIDIPRMSPEALILQPKVTEIFERILFIWAIRHPASGYVQGINDLVTPFFVVFICEYIEAEEVDTVDVSGVPAEVLCNIEADTYWCMSKLLDGIQDNYTFAQPGIQMKVKMLEELVSRIDEQVHRHLDQHEVRYLQFAFRWMNNLLMREVPLRCTIRLWDTYQSEPDGFSHFHLYVCAAFLVRWRKEILEEKDFQELLLFLQNLPTAHWDDEDISLLLAEAYRLKFAFADAPNHYKK
B2: Golgi resident protein GCP60 (Homo sapiens), Q9H3P7 (parent)
chain: MAAVLNAERLEVSVDGLTLSPDPEERPGAEGAPLLPPPLPPPSPPGSGRGPGASGEQPEPGEAAAGGAAEEARRLEQRWGFGLEELYGLALRFFKEKDGKAFHPTYEEKLKLVALHKQVLMGPYNPDTCPEVGFFDVLGNDRRREWAALGNMSKEDAMVEFVKLLNRCCHLFSTYVASHKIEKEEQEKKRKEEEERRRREEEERERLQKEEEKRRREEEERLRREEEERRRIEEERLRLEQQKQQIMAALNSQTAVQFQQYAAQQYPGNYEQQQILIRQLQEQHYQQYMQQLYQVQLAQQQAALQKQQEVVVAGSSLPTSSKVNATVPSNMMSVNGQAKTHTDSSEKELEPEAAEEALENGPKESLPVIAAPSMWTRPQIKDFKEKIQQDADSVITVGRGEVVTVRVPTHEEGSYLFWEFATDNYDIGFGVYFEWTDSPNTAVSVHVSESSDDDEEEEENIGCEEKAKKNANKPLLDEIVPVYRRDCHEEVYAGSHQYPGRGVYLLKFDNSYSLWRSKSVYYRVYYTR
B3: TBC1 domain family member 22B (Homo sapiens), Q9NU19 (parent)
chain: MAAENSKQFWKRSAKLPGSIQPVYGAQHPPLDPRLTKNFIKERSKVNTVPLKNKKASSFHEFARNTSDAWDIGDDEEEDFSSPSFQTLNSKVALATAAQVLENHSKLRVKPERSQSTTSDVPANYKVIKSSSDAQLSRNSSDTCLRNPLHKQQSLPLRPIIPLVARISDQNASGAPPMTVREKTRLEKFRQLLSSQNTDLDELRKCSWPGVPREVRPITWRLLSGYLPANTERRKLTLQRKREEYFGFIEQYYDSRNEEHHQDTYRQIHIDIPRTNPLIPLFQQPLVQEIFERILFIWAIRHPASGYVQGINDLVTPFFVVFLSEYVEEDVENFDVTNLSQDMLRSIEADSFWCMSKLLDGIQDNYTFAQPGIQKKVKALEELVSRIDEQVHNHFRRYEVEYLQFAFRWMNNLLMRELPLRCTIRLWDTYQSEPEGFSHFHLYVCAAFLIKWRKEILDEEDFQGLLMLLQNLPTIHWGNEEIGLLLAEAYRLKYMFADAPNHYRR
B4: Golgi resident protein GCP60 (Homo sapiens), Q9H3P7 (parent)
chain: B2 chain
partner: B1 chain
B5: Golgi resident protein GCP60 (Homo sapiens), Q9H3P7 (parent)
chain: B2 chain
partner: B3 chain

Variants of: B1
Conditions: with gcp60_human ACBD3, Q9H3P7

Variant | effect of a mutation on the interaction
Q107A;R108A;Q109A | with no effect
S167E | with no effect
T149E;S150E | decreasing interaction strength
Q163A;R164A;S165A;Q166A | with no effect
S132A | decreasing interaction strength
E87A;S88A;L89A | with no effect
Q320A | with no effect
S165A | with no effect
S165E | with no effect
L81A;L82A | with no effect
S165E;S167E | with no effect
S165A;S167A | with no effect

Variants of: B1
Conditions: with gcp60_human ACBD3, Q9H3P7
Remark: another data set of the same source

Variant | effect of a mutation on the interaction
N99A;R100A | with no effect
R103A;N104A;H105A | with no effect
E92A;V93A | with no effect
E96A;T97A | with no effect
V93A;V94A;M95A;E96A | decreasing interaction strength
N90A;S91A;E92A | with no effect
V101A;L102A | disrupting interaction strength

Variants of: B2
Conditions: with polg_aiva8 polg

Variant | effect of a mutation on the interaction
S511A | with no effect
V256A;Q257A;F258A | with no effect
S511A;Y512A;S513A | disrupting interaction strength
Q264A;Q265A;Y266A | with no effect
S414A;Y415A;L416A | decreasing interaction strength
G494A;S495A;H496A | disrupting interaction strength
F417A;W418A;E419A;F420A | disrupting interaction strength
S513A | with no effect
E434A | with no effect
F433A | disrupting interaction strength
W435A | with no effect
Y512A | decreasing interaction strength
H496A | with no effect
F433A;E434A;W435A | disrupting interaction strength
E282A;Q283A;H284A;Y285A | with no effect
S344A;S345A | with no effect

Variants of: B2
Conditions: with polg_hkv1 polg

Variant | effect of a mutation on the interaction
V256A;Q257A;F258A | with no effect
S511A;Y512A;S513A | disrupting interaction strength
Q264A;Q265A;Y266A | with no effect
S414A;Y415A;L416A | disrupting interaction strength
G494A;S495A;H496A | disrupting interaction strength
F417A;W418A;E419A;F420A | disrupting interaction strength
F433A;E434A;W435A | disrupting interaction strength
E282A;Q283A;H284A;Y285A | with no effect
K507A;F508A;D509A;N510A | disrupting interaction strength
S344A;S345A | with no effect

Variants of: B3
Conditions: with gcp60_human ACBD3, Q9H3P7

Variant | effect of a mutation on the interaction
L94A;T96A | with no effect
Q99A | with no effect
L88A;N89A;S90A | decreasing interaction strength
S116E;T117E;T118E;S119E | with no effect
V100A;L101A | disrupting interaction strength
S168E | with no effect
E102A;N103A;H104A | with no effect
K91A;V92A | with no effect
S114E | with no effect
S58E | with no effect
S140E;S141E | with no effect
T143E | with no effect

Variants of: B4
Conditions: with tb22a_human TBC1D22A

Variant | effect of a mutation on the interaction
Q274A;I275A;L276A;I277A | disrupting interaction strength
K213A;R214A;R215A;R216A | with no effect
Q259A;Q260A;Y261A | decreasing interaction strength
R196A;R197A;R198A;R199A | with no effect
R236A;L237A;R238A;L239A | with no effect
C168A;C169A;H170A | with no effect
L164A;L165A;N166A;R167A | with no effect
E240A;Q241A;Q242A | with no effect
E192A;E193A;E194A;E195A | with no effect
K209A;E210A;E211A;E212A | with no effect
R204A;E205A;R206A;L207A;Q208A | with no effect
K188A;K189A;R190A;K191A | with no effect
Y270A;E271A;Q272A;Q273A | with no effect
I246A;M247A;Q253A;T254A | disrupting interaction strength
E225A;E226A;E227A;E228A | with no effect
P267A;G268A;N269A | disrupting interaction strength
E200A;E201A;E202A;E203A | with no effect
I246A;M247A | disrupting interaction strength
R221A;L222A;R223A;R224A | with no effect
E184A;E185A;Q186A;E187A | with no effect

Variants of: B4
Conditions: with tb22a_human TBC1D22A
Remark: another data set of the same source

Variant | effect of a mutation on the interaction
S414A;Y415A;L416A | with no effect
E282A;Q283A;H284A;Y285A | disrupting interaction strength
Q264A;Q265A;Y266A | with no effect
V256A;Q257A;F258A | disrupting interaction strength
S511A;Y512A;S513A | with no effect
F433A;E434A;W435A | with no effect
S344A;S345A | with no effect
F417A;W418A;E419A;F420A | with no effect
G494A;S495A;H496A | with no effect

Variants of: B5
Conditions: with tb22b_human TBC1D22B

Variant | effect of a mutation on the interaction
L276A | decreasing interaction strength
F433A;E434A;W435A | with no effect
Y285A | decreasing interaction strength
S414A;Y415A;L416A | with no effect
Q244A | with no effect
G494A;S495A;H496A | with no effect
S511A | decreasing interaction strength
F417A;W418A;E419A;F420A | with no effect
I275A | with no effect
S511A;Y512A;S513A | with no effect
Q253A | with no effect
Y261A | decreasing interaction strength
Q260A | with no effect
K243A | with no effect
V256A;Q257A;F258A | disrupting interaction strength
Y288A | disrupting interaction strength
Q264A;Q265A;Y266A | with no effect
Q286A | with no effect
Q257A | decreasing interaction strength
E282A;Q283A;H284A;Y285A | disrupting interaction strength
I246A | decreasing interaction strength
H284A | disrupting interaction strength
F258A | decreasing interaction strength
S344A;S345A | with no effect
Q245A | with no effect
Q259A | with no effect
Q287A | with no effect
T254A | with no effect

Variants of: B5
Conditions: with tb22b_human TBC1D22B
Remark: another data set of the same source

Variant | effect of a mutation on the interaction
Q259A;Q260A;Y261A | with no effect
P267A;G268A;N269A | disrupting interaction strength
